{"source": "paper PMC3268689", "about": "(Molecular Cell, 2009)", "proteins": {"B1": {"name": "PAN nucleotidase domain (residues 155-430) (domain or fragment, Methanocaldococcus jannaschii, UniProt Q58576 155-430, looked up)", "chain": "RAKAMEVDERPNVRYEDIGGLEKQMQEIREVVELPLKHPELFEKVGIEPPKGILLYGPPGTGKTLLAKAVATETNATFIRVVGSELVKKFIGEGASLVKDIFKLAKEKAPSIIFIDEIDAIAAKRTDALTGGDREVQRTLMQLLAEMDGFDARGDVKIIGATNRPDILDPAILRPGRFDRIIEVPAPDEKGRLEILKIHTRKMNLAEDVNLEEIAKMTEGCVGAELKAICTEAGMNAIRELRDYVTMDDFRKAVEKIMEKKKVKVKEPAHLDVLYR"}, "B2": {"name": "PAN subcomplex I fragment (residues 74-150), coiled-coil OB-fold domain (domain or fragment, Methanocaldococcus jannaschii, UniProt Q58576 74-150, looked up)", "chain": "MKENEILRRELDRMRVPPLIVGTVVDKVGERKVVVKSSTGPSFLVNVSHFVNPDDLAPGKRVCLNQQTLTVVDVLPE", "modifications": "selenomethionine (in the crystals used for MAD phasing and refinement)"}}, "target": "the molecule itself", "assay": "SEC"}
{"protein": "B1", "values": [{"measurement": "stoichiometry N", "result": 6}]}
{"protein": "B2", "values": [{"measurement": "stoichiometry N", "result": 6}]}
